Key:
ZM109 V1/V2 wt (293) = assay: ELISA; table row ZM109 V1/V2 wt, column 293
ZM197 V1/V2 wt (293) = assay: ELISA; table row ZM197 V1/V2 wt, column 293
[1] = biological target: 108060-I169K V1/V2 scaffold, gD-tagged, produced in normal 293 HEK cells (herpes simplex virus 1; HIV-1 isolate 108060); assay: ELISA; table row 108060 V1/V2 I169K, column 293
A244 V1/V2.eng1 (GnTI-) = assay: ELISA; table row A244 V1/V2.eng1*, GnTI-
[2] = biological target: JRFL-E168K V1/V2 scaffold, wildtype, gD-tagged, produced in GnTI- 293 HEK cells (herpes simplex virus 1; HIV-1 isolate JRFL) (UniProt Q69091); assay: ELISA; table row JRFL-E168K V1/V2 wt, GnTI-
[3] = biological target: 108060 I169K/E172V/T161M/N156I V1/V2 scaffold, gD-tagged, produced in normal 293 HEK cells (herpes simplex virus 1; HIV-1 isolate 108060); assay: ELISA; table row 108060 I169K/E172V/T161M/N156I, column 293
[4] = biological target: 108060 I169K/E172V/T161M/N156I V1/V2 scaffold, gD-tagged, produced in GnTI- 293 HEK cells (herpes simplex virus 1; HIV-1 isolate 108060); assay: ELISA; table row 108060 I169K/E172V/T161M/N156I, GnTI-
[5] = biological target: 108060 V1/V2 scaffold, mutant, Strep-tag/6x Histidine-tag, expressed in 293F cells (HIV-1 isolate 108060); assay: SPR (Biacore 3000), PG9 captured by anti-human Fc, scaffold flowed, 1:1 Langmuir fit
[6] = biological target: A244 V1/V2 scaffold, engineered, Strep-tag/6x Histidine-tag, produced in normal 293 cells (HIV-1 isolate A244); assay: as above
[7] = biological target: MN V1/V2 scaffold, mutant, Strep-tag/6x Histidine-tag, expressed in 293F cells (HIV-1 isolate MN) (UniProt P05877); assay: as above
[8] = biological target: ZM233 V1/V2 scaffold, engineered, Strep-tag/6x Histidine-tag, expressed in normal 293 cells (HIV-1 isolate ZM233); assay: as above
[9] = biological target: A244-rgp120 grown in GnTI- cells (HIV-1 isolate A244); assay: ELISA, mAb titrated on gp120, absorbance 492 nm; curve 495 (A244 gp120 GNTI-)
[10] = biological target: A244 V1/V2 scaffold, engineered, Strep-tag/6x Histidine-tag, produced in normal 293 cells (HIV-1 isolate A244); assay: SPR (Biacore 3000), PG9 captured on anti-human Fc, scaffold flowed, 1:1 Langmuir fit
[11] = biological target: A244 V1/V2 scaffold, wildtype (unmutated), Strep-tag/6x Histidine-tag, expressed in GnTI- cells (HIV-1 isolate A244); assay: as above
[12] = biological target: ZM233 V1/V2 scaffold, engineered, Strep-tag/6x Histidine-tag, expressed in normal 293 cells (HIV-1 isolate ZM233); assay: as above

Q: Which results are given for PG9 monoclonal antibody?
A: EC50 (ZM109 V1/V2 wt (293)): 0.517 µg/mL; EC50 (ZM197 V1/V2 wt (293)): 2.74 µg/mL; EC50 [1]: > 10 µg/mL; EC50 (A244 V1/V2.eng1 (GnTI-)): 0.00406 µg/mL; EC50 [2]: > 10 µg/mL; EC50 [3]: 0.599 µg/mL; EC50 [4]: 0.0281 µg/mL; Kd [5]: 74 nM; Kd [6]: 49 nM; Kd [7]: 118 nM; Kd [8]: 33 nM; EC50 [9]: 0.02 µg/mL; kon [10]: 40000 M⁻¹ s⁻¹; kon [11]: 53000 M⁻¹ s⁻¹; koff [12]: 0.0023 s⁻¹; kon [12]: 40000 M⁻¹ s⁻¹
